{"source": "paper PMC4338599", "about": "(Science (New York, N.Y.), 2015)", "proteins": {"B1": {"name": "PAXX residues 1-145 (PAXX^1-145) (domain or fragment)", "chain": "MDPLSPPLCTLPPGPEPPRFVCYCEGEESGEGDRGGFNLYVTDAAELWSTCFTPDSLAALKARFGLSAAEDITPRFRAACEQQAVALTLQEDRASLTLSGGPSALAFDLSKVPGPEAAPRLRALTLGLAKRVWSLERRLAAAEET"}}, "molecular_target": "the molecule itself", "experiment": "native MS"}
{"protein": "B1", "values": [{"measurement": "stoichiometry N", "value": 2}]}
